In patent US10975360B2, “Process for the modification of alkanes, fatty acids and fatty alcohols” (priority 2016, dated 2021):

Key:
[1] = Biotransformation of C12 fatty acid using CFE of E. coli expressing CYP505E3 in different buffers; assay type: biochemical
Description: (§1) Expression of genes in E. coli was performed by using ZYP-5052 auto-induction medium (Table 1) with in the case of the CYP 1 mM 5-aminolevulinic acid and 0.05 mM FeCl3 added. The CYP505E3 culture was cultivated using baffled flasks and incubated at 20° C. and 180 rpm for 24 h, while the GDH, and HLADH expressing cultures were all cultivated at 25° C. and 200 rpm for 24 h. Cultures were harvested through centrifugation (6 000×g, 10 min) and 1 g (wet weight) resuspended in 2 ml, 5 ml or 10 ml Tris-HCl, Phosphate or MOPS buffer, as indicated, (pH 8, 200 mM) containing 100 mM of glucose and glycerol. CFEs were obtained by a single passage of the suspended cells through a One Shot Cell Disrupter (Constant Systems) at 207 MPa. The soluble fraction was separated from unbroken cells by centrifugation (20 000×g, 20 min).
The biotransformation reaction mixture (BRM) consisted of CYP and GDH CFE suspensions prepared from cells in Tris-HCl, phosphate and MOPS buffers (1 g wet weight in 5 ml buffer) mixed in a 1:1 ratio with 0.1 mM NADPH added. The final CYP concentrations were 1.1, 1.3 and 1.5 μM in respectively the Tris-HCl, phosphate and MOPS buffers. Dodecanoic acid (20 μl of 255 or 510 mM fatty acid stock solution in DMSO) was added to 40 ml amber glass vials containing 1 ml BRM to give final substrate concentrations of 5 and 10 mmol·LBRM^−1. […]

[2] = Whole cell biotransformation of dodecane by CYP505s expressed in P. pastoris; assay type: cell-based; settings: whole cells of P. pastoris
Description: Precultures of P. pastoris transformants were prepared in buffered complex glycerol media (BMGY). BMGY contained: 10 g/l yeast extract, 20 g/l peptone, 3.4 g/l yeast nitrogen base, 10 g/l ammonium sulfate, 100 mM potassium phosphate (pH 6), 0.4 mg/l biotin and 1% (v/v) glycerol. Erlenmeyer flasks (500 ml) containing 50 ml BMGY media were inoculated with single colonies of 24 h old YPD-agar cultures of P. pastoris KM71 mut^s3/CYP505E3 and incubated at 30° C. and 225 rpm for 24 h. The cultures were harvested using pre-weighed centrifuge tubes at 3000 g for 5 min and stored on ice until further use.
The main cultures for expression were prepared in buffered complex methanol media (BMMY) containing 10 g/l yeast extract, 20 g/l peptone, 3.4 g/l yeast nitrogen base, 10 g/l ammonium sulfate, 100 mM potassium phosphate (pH 6), 0.4 mg/l biotin and 0.5 or 1% (v/v) methanol. Harvested cells from precultures were resuspended in BMMY media to final concentration of 1 g WC per 40 ml (appx. 25 g/l). The resuspended cultures (100 ml) were transferred to 500 ml Erlenmeyer flasks and incubated at 25° C. and 225 rpm for 24 h. The cultures were then harvested at 3000 g for 5 min using pre-weighed centrifuge tubes.
Different transformants of Pichia pastoris KM71 harbouring the CYP505 genes for SEQ ID Nos 1 to 7 and 9 to 12 were grown and harvested as described above. The harvested cells were resuspended to give 1 g wet cell weight in 40 ml MOPS buffer (200 mM, 100 mM glucose, 100 mM glycerol, pH 8) and 1 ml aliquots of these cell suspensions were transferred to 40 ml amber vials. Dodecane, 1-dodecanol and 1-tetradecanol were added neat to these cell suspensions to give final concentrations of 200 mM in the case of the alcohols and 1 M in the case of dodecane while in the case of dodecanoic acid 20 μl of a 500 mM stock solution (in DMSO) was added to give a final concentration of 10 mM. Transformants harbouring the CYP505 genes for SEQ ID Nos 1 to 4 were tested for the biotransformation of 1-dodecanol, 1-tetradecanol, dodecanoic acid, tetradecanoic acid and dodecane, while those harbouring the CYP505 genes for SEQ ID Nos 5 to 7 and 9 to 12 were only tested for the biotransformation of 1-dodecanol and dodecanoic acid. The biotransformations were incubated at 25° C. and 225 rpm for 24 h. Extractions were performed using ethyl acetate (500 μl×2). The extracts were analyzed using GC/MS.

[3] = whole cell biotransformations, E. coli; cited from earlier work
[4] = Biotransformation of hexadecane using CFE of E. coli expressing CYP505E3; assay type: biochemical
Description: as §1
Biotransformations of dodecane, tetradecane and hexadecane were carried using only CYP505E3 containing CFE prepared from an E. coli cell suspension (1 g wet weight in 10 ml buffer) in MOPS buffer (200 mM, pH 8) containing glucose and glycerol (100 mM each) as well as 0.1 mM NADPH. Alkane substrates (250 μL) were added to 1 mL BRM in 40 ml amber glass vials. These vials were placed on an orbital shaker at 20° C., 200 rpm, oscillation amplitude 26 mm and incubated for 24 h.

[5] = Time course of biotransformation of 50 mM C12 fatty acid using CFE of E. coli in MOPS buffer; assay type: biochemical; settings: 50 mM dodecanoic acid, 0.2 μM CYP
Description: as §1, with “min). […]” for “min).”
After extraction aliquots (50 μl) of ethyl acetate extracts containing both decanoic acid and tetradecanol as internal standards were methylated for GC-MS analysis while the rest of the extracts were washed with a Na2CO3 (5% w/v) solution to remove the fatty acids. The washed ethyl acetate extracts were also analysed by GC-MS and the δ-dodecalactone and γ-dodecalactone concentrations determined from a standard curve.

B1: CYP505E3: self-sufficient cytochrome P450 monooxygenase from Aspergillus terreus, SEQ ID No 1 (protein, listed as Aspergillus terreus)
chain: MIKETEQIPGPRPLPVVGNLFDMDLEHGLECLIRLADDFGPLFQITINGEKQIFATSQALVDELCDESRFHKAVMGGLEKLRMLASDGLFTAYHGERGWGIAHRILVPAFGPLRIRNMFEEMNDVAQQLCLKWARQGSSTSINITDDFTRLTLDTIALCTMNFRLNSFYNNETMHPFVKSMLYVLRESDIQSMLPGIANCIRVKARSRMSKHIQLMRNMARGIIQERRDQAEPVDDLLNTLLNGRDPVTGEGMSDDLIINNVITFLIAGHETTSGLLSFTFYYLLQNPHILERAQNEVDEVTGGERITVQHLGRLTYIDAILKESLRLMPTAPAFTVTPKKPEVLGGAWAIDAGQAVNVLLPVCLRDRSVFGPDADEFRPERMLEENFSKLPPNSWKPFGNGERSCIGRAFAWQEAQLVVAMVLQTFDLVPDDPSYKLRIKETLTIKPDGFRVRATLRRGQSATGLSQGSMSASGATSSVASPGPPAATGAQSNPAGGQRISFFYGSNSGTCKALAHRLASSLMGRGFTEQKLAALDTVVGNLPTDQPVIIVTTSYDGRPTDDAEEFVRWLESKRPVLQGVSYAVFGCGHHDWAKTFYRIPILIDDLMHKAGATRLTALGTANAAVSDLFSDLELWEETNLLPALREAFPPSNSSDVESSEPHQLQICVSKPRRVDMHRGLVEAKVTAVRTLTSPDSPEKRHVEFHVQGDTTWRPGDHVNILPVNPLSTVSRVLAYFQLAPDHSITVNSFNTQGLPSATPVSATELFSSFVELSQPATRKNLKALAMAAESKTDEQELIRLHDSYDALVRDKRVSVLDILERFPSISLPIGIFISMLPPLRLRTYSLSMAPSFKPSHGSLTFSVINEPAWSGNGQYLGVGSNYLASLTPGSLLYLSPRPAKDAFHLPADQFNTPIIMICAGSGLAPFMGFIQERMTWLKQGRPLAKGLLFFGCRGPHLDDLYYEELSEFEDAGVVEVHRAYSRAPDDVRAKGCRHVQHRLVTEAEAVRDHWGRNAIVYVCGSSNMARGVQTVLEEILGTLPPERYVAEIF
With B1 the conversion of substrate ([1]; 5 mM dodecanoic acid, within 24 h, all buffers) was “almost completely converted”, the “δ-dodecalactone and 5-OH 12FAME as share of the total products” value ([1]; dodecanoic acid, CFE, Tris-HCl, phosphate or MOPS buffer pH 8) was 30-35% and the “products produced from dodecane (GC-MS)” value ([2]; 1 M dodecane, 24 h) was 5-dodecanol. The “ω-7 hydroxylase activity C12alk” value ([2]; C12 alkane, GC-MS peak height) was “+++ (+++ 1 million < RA < 10 million)”, the “activity towards alkanes and alkylbenzens” value [3] was “no detectable activity” and the “ω-7 hydroxylase activity C16alk” value ([4]; C16 alkane, GC-MS peak height) was “+ (+ − 0.01 million < RA < 0.1 million)”. The “product from hexadecane (GC-MS)” value ([4]; MOPS buffer, 24 h) was 8-hexadecanol, the “lactone concentrations in the washed ethyl acetate samples” value ([5]; Na2CO3 washed, not methylated) was 0.6 mmol·LBRM^−1 and the “lactone concentrations in the unwashed samples” value ([5]; unwashed, methylated) was 1.6 mmol·LBRM^−1.
